Results on 16 molecules are retold here after patent publication US20260176319A1 (KALLYOPE, published 2026).

Starred links: 1 amine or outer side, 2 acyl side, 3 side chain; linkers in the order of their positions; H or OH if unused. Non-standard residues stand in square brackets, D forms with d. *: point of attachment. Trp(6-Me) = Cc1ccc2c(C[C@H](N)C(=O)O)c[nH]c2c1; Trp(7-Me) = Cc1cccc2c(C[C@H](N)C(=O)O)c[nH]c12; d(γGlu) = O=C(O)[C@@H](CCC(=O)[*:2])N[*:1]; C18 diacid = O=C(O)CCCCCCCCCCCCCCCCC(=O)*; Palmitoyl = CCCCCCCCCCCCCCCC(=O)*; 3Pal = N[C@@H](Cc1cccnc1)C(=O)O; Nle = CCCC[C@H](N)C(=O)O; AEEA = NCCOCCOCC(=O)O; Aib = CC(C)(N)C(=O)O; Sar = CNCC(=O)O

B1: Peptide 72 (peptide)
peptide: {C18 diacid}-[d(γGlu)][AEEA][AEEA]GN[3Pal]WAV[dA]HL[Nle][Sar]-NH2
SMILES: CCCC[C@H](NC(=O)[C@H](CC(C)C)NC(=O)[C@H](Cc1c[nH]cn1)NC(=O)[C@@H](C)NC(=O)[C@@H](NC(=O)[C@H](C)NC(=O)[C@H](Cc1c[nH]c2ccccc12)NC(=O)[C@H](Cc1cccnc1)NC(=O)[C@H](CC(N)=O)NC(=O)CNC(=O)COCCOCCNC(=O)COCCOCCNC(=O)CC[C@@H](NC(=O)CCCCCCCCCCCCCCCCC(=O)O)C(=O)O)C(C)C)C(=O)N(C)CC(N)=O
B2: Peptide 67 (peptide)
peptide: {C18 diacid}-[d(γGlu)][AEEA][AEEA]GEHWAV[dA][3Pal]L[Nle]-NH2
SMILES: CCCC[C@H](NC(=O)[C@H](CC(C)C)NC(=O)[C@H](Cc1cccnc1)NC(=O)[C@@H](C)NC(=O)[C@@H](NC(=O)[C@H](C)NC(=O)[C@H](Cc1c[nH]c2ccccc12)NC(=O)[C@H](Cc1c[nH]cn1)NC(=O)[C@H](CCC(=O)O)NC(=O)CNC(=O)COCCOCCNC(=O)COCCOCCNC(=O)CC[C@@H](NC(=O)CCCCCCCCCCCCCCCCC(=O)O)C(=O)O)C(C)C)C(N)=O
B3: Peptide 63 (peptide)
peptide: Palmitoyl-[d(γGlu)][AEEA][AEEA]GNH[Trp(6-Me)]AV[dA]HL[Nle]-NH2
SMILES: CCCCCCCCCCCCCCCC(=O)N[C@H](CCC(=O)NCCOCCOCC(=O)NCCOCCOCC(=O)NCC(=O)N[C@@H](CC(N)=O)C(=O)N[C@@H](Cc1c[nH]cn1)C(=O)N[C@@H](Cc1c[nH]c2cc(C)ccc12)C(=O)N[C@@H](C)C(=O)N[C@H](C(=O)N[C@H](C)C(=O)N[C@@H](Cc1c[nH]cn1)C(=O)N[C@@H](CC(C)C)C(=O)N[C@@H](CCCC)C(N)=O)C(C)C)C(=O)O
B4: Peptide 69 (peptide)
peptide: {C18 diacid}-[d(γGlu)][AEEA][AEEA]GNHWAV[dA]HLR-NH2
SMILES: CC(C)C[C@H](NC(=O)[C@H](Cc1c[nH]cn1)NC(=O)[C@@H](C)NC(=O)[C@@H](NC(=O)[C@H](C)NC(=O)[C@H](Cc1c[nH]c2ccccc12)NC(=O)[C@H](Cc1c[nH]cn1)NC(=O)[C@H](CC(N)=O)NC(=O)CNC(=O)COCCOCCNC(=O)COCCOCCNC(=O)CC[C@@H](NC(=O)CCCCCCCCCCCCCCCCC(=O)O)C(=O)O)C(C)C)C(=O)N[C@@H](CCCNC(=N)N)C(N)=O
B5: Peptide 58 (peptide)
peptide: Palmitoyl-[d(γGlu)][AEEA][AEEA][AEEA][AEEA]GN[3Pal][Trp(7-Me)]AV[dA]HL[Nle]-NH2
SMILES: CCCCCCCCCCCCCCCC(=O)N[C@H](CCC(=O)NCCOCCOCC(=O)NCCOCCOCC(=O)NCCOCCOCC(=O)NCCOCCOCC(=O)NCC(=O)N[C@@H](CC(N)=O)C(=O)N[C@@H](Cc1cccnc1)C(=O)N[C@@H](Cc1c[nH]c2c(C)cccc12)C(=O)N[C@@H](C)C(=O)N[C@H](C(=O)N[C@H](C)C(=O)N[C@@H](Cc1c[nH]cn1)C(=O)N[C@@H](CC(C)C)C(=O)N[C@@H](CCCC)C(N)=O)C(C)C)C(=O)O
B6: Peptide 71 (peptide)
peptide: {C18 diacid}-[d(γGlu)][AEEA][AEEA]K(Ac)HWAV[dA]HL[Nle]-NH2
SMILES: CCCC[C@H](NC(=O)[C@H](CC(C)C)NC(=O)[C@H](Cc1c[nH]cn1)NC(=O)[C@@H](C)NC(=O)[C@@H](NC(=O)[C@H](C)NC(=O)[C@H](Cc1c[nH]c2ccccc12)NC(=O)[C@H](Cc1c[nH]cn1)NC(=O)[C@H](CCCCNC(C)=O)NC(=O)COCCOCCNC(=O)COCCOCCNC(=O)CC[C@@H](NC(=O)CCCCCCCCCCCCCCCCC(=O)O)C(=O)O)C(C)C)C(N)=O
B7: Peptide 65 (peptide)
peptide: {C18 diacid}-[d(γGlu)][AEEA][AEEA]GK(Ac)HWAV[dA]HL[Nle]-NH2
SMILES: CCCC[C@H](NC(=O)[C@H](CC(C)C)NC(=O)[C@H](Cc1c[nH]cn1)NC(=O)[C@@H](C)NC(=O)[C@@H](NC(=O)[C@H](C)NC(=O)[C@H](Cc1c[nH]c2ccccc12)NC(=O)[C@H](Cc1c[nH]cn1)NC(=O)[C@H](CCCCNC(C)=O)NC(=O)CNC(=O)COCCOCCNC(=O)COCCOCCNC(=O)CC[C@@H](NC(=O)CCCCCCCCCCCCCCCCC(=O)O)C(=O)O)C(C)C)C(N)=O
B8: Peptide 59 (peptide)
peptide: Palmitoyl-[d(γGlu)][AEEA][AEEA][AEEA][AEEA]GNH[Trp(7-Me)]AV[dA]HL[Nle]-NH2
SMILES: CCCCCCCCCCCCCCCC(=O)N[C@H](CCC(=O)NCCOCCOCC(=O)NCCOCCOCC(=O)NCCOCCOCC(=O)NCCOCCOCC(=O)NCC(=O)N[C@@H](CC(N)=O)C(=O)N[C@@H](Cc1c[nH]cn1)C(=O)N[C@@H](Cc1c[nH]c2c(C)cccc12)C(=O)N[C@@H](C)C(=O)N[C@H](C(=O)N[C@H](C)C(=O)N[C@@H](Cc1c[nH]cn1)C(=O)N[C@@H](CC(C)C)C(=O)N[C@@H](CCCC)C(N)=O)C(C)C)C(=O)O
B9: Peptide 62 (peptide)
peptide: {C18 diacid}-[d(γGlu)][AEEA][AEEA]GNHWAV[dA]FL[Nle]-NH2
SMILES: CCCC[C@H](NC(=O)[C@H](CC(C)C)NC(=O)[C@H](Cc1ccccc1)NC(=O)[C@@H](C)NC(=O)[C@@H](NC(=O)[C@H](C)NC(=O)[C@H](Cc1c[nH]c2ccccc12)NC(=O)[C@H](Cc1c[nH]cn1)NC(=O)[C@H](CC(N)=O)NC(=O)CNC(=O)COCCOCCNC(=O)COCCOCCNC(=O)CC[C@@H](NC(=O)CCCCCCCCCCCCCCCCC(=O)O)C(=O)O)C(C)C)C(N)=O
B10: Peptide 60 (peptide)
peptide: {C18 diacid}-[d(γGlu)][AEEA][AEEA]GKHWAV[dA]HL[Nle]-NH2
SMILES: CCCC[C@H](NC(=O)[C@H](CC(C)C)NC(=O)[C@H](Cc1c[nH]cn1)NC(=O)[C@@H](C)NC(=O)[C@@H](NC(=O)[C@H](C)NC(=O)[C@H](Cc1c[nH]c2ccccc12)NC(=O)[C@H](Cc1c[nH]cn1)NC(=O)[C@H](CCCCN)NC(=O)CNC(=O)COCCOCCNC(=O)COCCOCCNC(=O)CC[C@@H](NC(=O)CCCCCCCCCCCCCCCCC(=O)O)C(=O)O)C(C)C)C(N)=O
B11: Peptide 4 (peptide)
peptide: {C18 diacid}-[d(γGlu)][AEEA][AEEA]GNHWAV[Aib]HL[Nle]-NH2
SMILES: CCCC[C@H](NC(=O)[C@H](CC(C)C)NC(=O)[C@H](Cc1c[nH]cn1)NC(=O)C(C)(C)NC(=O)[C@@H](NC(=O)[C@H](C)NC(=O)[C@H](Cc1c[nH]c2ccccc12)NC(=O)[C@H](Cc1c[nH]cn1)NC(=O)[C@H](CC(N)=O)NC(=O)CNC(=O)COCCOCCNC(=O)COCCOCCNC(=O)CC[C@@H](NC(=O)CCCCCCCCCCCCCCCCC(=O)O)C(=O)O)C(C)C)C(N)=O
B12: Peptide 66 (peptide)
peptide: {C18 diacid}-[d(γGlu)][AEEA][AEEA]GNHWAV[dA][3Pal]L[Nle]-NH2
SMILES: CCCC[C@H](NC(=O)[C@H](CC(C)C)NC(=O)[C@H](Cc1cccnc1)NC(=O)[C@@H](C)NC(=O)[C@@H](NC(=O)[C@H](C)NC(=O)[C@H](Cc1c[nH]c2ccccc12)NC(=O)[C@H](Cc1c[nH]cn1)NC(=O)[C@H](CC(N)=O)NC(=O)CNC(=O)COCCOCCNC(=O)COCCOCCNC(=O)CC[C@@H](NC(=O)CCCCCCCCCCCCCCCCC(=O)O)C(=O)O)C(C)C)C(N)=O
B13: Peptide 61 (peptide)
peptide: {C18 diacid}-[d(γGlu)][AEEA][AEEA]GRHWAV[dA]HL[Nle]-NH2
SMILES: CCCC[C@H](NC(=O)[C@H](CC(C)C)NC(=O)[C@H](Cc1c[nH]cn1)NC(=O)[C@@H](C)NC(=O)[C@@H](NC(=O)[C@H](C)NC(=O)[C@H](Cc1c[nH]c2ccccc12)NC(=O)[C@H](Cc1c[nH]cn1)NC(=O)[C@H](CCCNC(=N)N)NC(=O)CNC(=O)COCCOCCNC(=O)COCCOCCNC(=O)CC[C@@H](NC(=O)CCCCCCCCCCCCCCCCC(=O)O)C(=O)O)C(C)C)C(N)=O
B14: Peptide 70 (peptide)
peptide: {C18 diacid}-[d(γGlu)][AEEA][AEEA]GEHW[Aib]V[dA]HL[Nle]-NH2
SMILES: CCCC[C@H](NC(=O)[C@H](CC(C)C)NC(=O)[C@H](Cc1c[nH]cn1)NC(=O)[C@@H](C)NC(=O)[C@@H](NC(=O)C(C)(C)NC(=O)[C@H](Cc1c[nH]c2ccccc12)NC(=O)[C@H](Cc1c[nH]cn1)NC(=O)[C@H](CCC(=O)O)NC(=O)CNC(=O)COCCOCCNC(=O)COCCOCCNC(=O)CC[C@@H](NC(=O)CCCCCCCCCCCCCCCCC(=O)O)C(=O)O)C(C)C)C(N)=O
B15: Peptide 68 (peptide)
peptide: {C18 diacid}-[d(γGlu)][AEEA][AEEA]GNHHAV[dA]HL[Nle]-NH2
SMILES: CCCC[C@H](NC(=O)[C@H](CC(C)C)NC(=O)[C@H](Cc1c[nH]cn1)NC(=O)[C@@H](C)NC(=O)[C@@H](NC(=O)[C@H](C)NC(=O)[C@H](Cc1c[nH]cn1)NC(=O)[C@H](Cc1c[nH]cn1)NC(=O)[C@H](CC(N)=O)NC(=O)CNC(=O)COCCOCCNC(=O)COCCOCCNC(=O)CC[C@@H](NC(=O)CCCCCCCCCCCCCCCCC(=O)O)C(=O)O)C(C)C)C(N)=O
B16: Peptide 64 (peptide)
peptide: {C18 diacid}-[d(γGlu)][AEEA][AEEA]GN[3Pal]WAV[dA]HL[Nle]-NH2
SMILES: CCCC[C@H](NC(=O)[C@H](CC(C)C)NC(=O)[C@H](Cc1c[nH]cn1)NC(=O)[C@@H](C)NC(=O)[C@@H](NC(=O)[C@H](C)NC(=O)[C@H](Cc1c[nH]c2ccccc12)NC(=O)[C@H](Cc1cccnc1)NC(=O)[C@H](CC(N)=O)NC(=O)CNC(=O)COCCOCCNC(=O)COCCOCCNC(=O)CC[C@@H](NC(=O)CCCCCCCCCCCCCCCCC(=O)O)C(=O)O)C(C)C)C(N)=O

In the assay the target is human GRP receptor (human, UniProt P30550 1-384). Nature of the assay: cell-based or functional assay.
Chain of human GRP receptor (P30550 whole entry): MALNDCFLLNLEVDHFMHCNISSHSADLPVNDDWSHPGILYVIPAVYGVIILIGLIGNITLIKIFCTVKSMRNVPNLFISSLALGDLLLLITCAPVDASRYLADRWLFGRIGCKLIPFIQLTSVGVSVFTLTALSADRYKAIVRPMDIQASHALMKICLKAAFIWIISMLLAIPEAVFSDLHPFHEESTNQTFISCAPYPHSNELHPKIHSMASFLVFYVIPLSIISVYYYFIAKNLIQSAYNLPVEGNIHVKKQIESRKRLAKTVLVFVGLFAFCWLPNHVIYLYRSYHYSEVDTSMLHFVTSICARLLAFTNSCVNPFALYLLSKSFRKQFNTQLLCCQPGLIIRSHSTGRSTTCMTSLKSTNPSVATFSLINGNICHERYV
As to B1, the “hIP1 GRPR EC50” value was found to be 1050 nM.

For the molecule B2, the “hIP1 GRPR EC50” value is 1050 nM.

As for B3, the “hIP1 GRPR EC50” value was determined as 4.75 nM.

For the molecule B4, the “hIP1 GRPR EC50” value is more than 10000 nM.

Turning to B5, the “hIP1 GRPR EC50” value amounted to 4.22 nM.

In the case of B6, the “hIP1 GRPR EC50” value came out at 6.2 nM.

Turning to B7, the “hIP1 GRPR EC50” value was 6.05 nM.

Consider B8, for which the “hIP1 GRPR EC50” value was 2.01 nM.

For B9, the “hIP1 GRPR EC50” value amounted to 83.7 nM.

Regarding B10, the “hIP1 GRPR EC50” value was determined as 7.27 nM.

Regarding B11, the “hIP1 GRPR EC50” value was determined as 1420 nM.

Consider B12, for which the “hIP1 GRPR EC50” value stood at 308 nM.

For B13, the “hIP1 GRPR EC50” value turned out to be 8.25 nM.

As to B14, the “hIP1 GRPR EC50” value was found to be 972 nM.

With B15, the “hIP1 GRPR EC50” value is more than 10000 nM.

Regarding B16, the “hIP1 GRPR EC50” value was determined as 49.4 nM.
